Data as given in paper PMC9706017, “Crystal Structure and Molecular Mechanism of Phosphotransbutyrylase from Clostridium acetobutylicum” (Journal of Microbiology and Biotechnology, 2021).

Biological target: the molecule itself
Assay: crystal structure; apo CaPTB with sulfate ions; crystals from 20% PEG3350, 0.2 M lithium sulfate, 0.1 M HEPES pH 7.5, 20°C; space group P21; 2.9 Å; eight molecules in the asymmetric unit

B1: phosphotransbutyrylase from Clostridium acetobutylicum (enzyme, UniProt P58255 1-301, looked up)
chain: MIKSFNEIIMKVKSKEMKKVAVAVAQDEPVLEAVRDAKKNGIADAILVGDHDEIVSIALKIGMDVNDFEIVNEPNVKKAALKAVELVSTGKADMVMKGLVNTATFLRSVLNKEVGLRTGKTMSHVAVFETEKFDRLLFLTDVAFNTYPELKEKIDIVNNSVKVAHAIGIENPKVAPICAVEVINPKMPSTLDAAMLSKMSDRGQIKGCVVDGPLALDIALSEEAAHHKGVTGEVAGKADIFLMPNIETGNVMYKTLTYTTDSKNGGILVGTSAPVVLTSRADSHETKMNSIALAALVAGNK
notes: phosphotransbutyrylase (phosphate butyryltransferase, PTB) of Clostridium acetobutylicum; Octamer (four dimers) in the crystal and by size-exclusion chromatography; Removal of the tag is not mentioned; also called CaPTB; PTB; source: E. coli BL21(DE3)-T1R, purified (Ni-NTA agarose, Superdex200 size exclusion)
stoichiometry N: 8
